Key:
[1] = biological target: the molecule itself; test: SEC-MALS; TodS(23–978) 1 mg/ml on Superdex G200, PBS pH 7.3 with 10% glycerol and 5 mM DTT, 0.25 ml/min, 25 °C
[2] = biological target: the molecule itself; test: SEC; purified His6-tagged PAS1(23–168) compared with the markers BSA (66 kDa) and carbonic anhydrase (29 kDa)
[3] = biological target: the molecule itself; test: not stated; the protein used for ITC is called 'the E146A mutant dimer'; how the dimer was shown for this mutant is not told
[4] = biological target: the molecule itself; test: negative-stain electron microscopy with Ni-NTA gold labelling; Ni-NTA gold (5 nm) on C-terminal His6-tagged TodS(43–978), negatively stained with 1% uranyl acetate
[5] = biological target: the molecule itself; test: SEC; purified PAS2(611–729) compared with the marker carbonic anhydrase (29 kDa)

Protein | stoichiometry N [2] | further results
dimerization helix-containing TodS (residues 23–978) (enzyme, Pseudomonas putida F1, UniProt A5W4E3 23-978, looked up, In pGST-Parallel1 (BamHI/XhoI); not shown: GST, N-terminal, cleaved) KEKGSEELTCEEHARIIFDGLYEFVGLLDAHGNVLEVNQVALEGGGITLEEIRGKPFWKARWWQISKKTEATQKRLVETASSGEFVRCDVEILGKSGGREVIAVDFSLLPICNEEGSIVYLLAEGRNITDKKKAEAMLALKNQELEQSVECIRKLDNAKSDFFAKVSHELRTPLSLILGPLEAVMAAEAGRESPYWKQFEVIQRNAMTLLKQVNTLLDLAKMDARQMGLSYRRANLSQLTRTISSNFEGIAQQKSITFDTKLPVQMVAEVDCEKYERIILNLLSNAFKFTPDGGLIRCCLSLSRPNYALVTVSDSGPGIPPALRKEIFERFHQLSQEGQQATRGTGLGLSIVKEFVELHRGTISVSDAPGGGALFQVKLPLNAPEGAYVASNTAPRRDNPQVVDTDEYLLLAPNAENEAEVLPFQSDQPRVLIVEDNPDMRGFIKDCLSSDYQVYVAPDGAKALELMSNMPPDLLITDLIMPVMSGDMLVHQVRKKNELSHIPIMVLSAKSDAELRVKLLSESVQDFLLKPFSAHELRARVSNLVSMKVAGDALRKELSDQGDDIAILTHRLIKSRHRLQQSNIALSASEARWKAVYENSAAGIVLTDPENRILNANPAFQRITGYGEKDLEGLSMEQLTPSDESPQIKQRLANLLQGGGAEYSVERSYLCKNGSTIWANASVSLMPQRVGESPVILQIIDDITEKKQAQENLNQLQQQLVYVSRSATMGEFAAYIAHEINQPLSAIMTNANAGTRWLGNEPSNIPEAKEALARIIRDSDRAAEIIRMVRSFLKRQETVLKPIDLKALVTDTSLILKAPSQNNSVNLDVVADDELPEIWGDGVQIQQLIINLAMNAIEAISQADCETRQLTLSFSGNDTGDALVISVKDTGPGISERQMAQLFNAFYTTKKEGLGMGLAICLTITEVHNGKIWVECPPAGGACFLVSIPARQGSGT |  | stoichiometry N [1]: 2
dimerization helix-containing PAS1 (residues 23–168) of TodS (domain or fragment, Pseudomonas putida F1, UniProt A5W4E3 23-168, looked up, TodS sensor kinase of Pseudomonas putida F1, residues 23–168 (PAS1 domain with the predicted dimerization helix); In pHis-Parallel1 (NcoI/XhoI), which has a TEV site after the His6 tag; the tag was not removed for this construct; The forward primer adds Met-Gly before Lys23; also called PAS1(23–168); WT PAS1(23–168); source: E. coli C41(DE3), purified (Ni-NTA only); not shown: His6, …) KEKGSEELTCEEHARIIFDGLYEFVGLLDAHGNVLEVNQVALEGGGITLEEIRGKPFWKARWWQISKKTEATQKRLVETASSGEFVRCDVEILGKSGGREVIAVDFSLLPICNEEGSIVYLLAEGRNITDKKKAEAMLALKNQELE | 2 | 
F46A-PAS1(23–168) (domain or fragment, Pseudomonas putida F1, UniProt A5W4E3 23-168, looked up, TodS sensor kinase of Pseudomonas putida F1, residues 23–168 with F46A; source: E. coli C41(DE3), purified (Ni-NTA only); not shown: His6, N-terminal, kept) KEKGSEELTCEEHARIIFDGLYEAVGLLDAHGNVLEVNQVALEGGGITLEEIRGKPFWKARWWQISKKTEATQKRLVETASSGEFVRCDVEILGKSGGREVIAVDFSLLPICNEEGSIVYLLAEGRNITDKKKAEAMLALKNQELE | 2 | 
W85H-PAS1(23–168) (domain or fragment, Pseudomonas putida F1, UniProt A5W4E3 23-168, looked up, TodS sensor kinase of Pseudomonas putida F1, residues 23–168 with W85H; source: E. coli C41(DE3), purified (Ni-NTA only); not shown: His6, N-terminal, kept) KEKGSEELTCEEHARIIFDGLYEFVGLLDAHGNVLEVNQVALEGGGITLEEIRGKPFWKARWHQISKKTEATQKRLVETASSGEFVRCDVEILGKSGGREVIAVDFSLLPICNEEGSIVYLLAEGRNITDKKKAEAMLALKNQELE | 2 | 
V59A-PAS1(23–168) (domain or fragment, Pseudomonas putida F1, UniProt A5W4E3 23-168, looked up, TodS sensor kinase of Pseudomonas putida F1, residues 23–168 with V59A; source: E. coli C41(DE3), purified (Ni-NTA only); not shown: His6, N-terminal, kept) KEKGSEELTCEEHARIIFDGLYEFVGLLDAHGNVLEANQVALEGGGITLEEIRGKPFWKARWWQISKKTEATQKRLVETASSGEFVRCDVEILGKSGGREVIAVDFSLLPICNEEGSIVYLLAEGRNITDKKKAEAMLALKNQELE | 2 | 
E146A-PAS1(23–168) (domain or fragment, Pseudomonas putida F1, UniProt A5W4E3 23-168, looked up, TodS sensor kinase of Pseudomonas putida F1, residues 23–168 with E146A; also called E146A mutant; source: E. coli C41(DE3), purified (Ni-NTA only); not shown: His6, N-terminal, kept) KEKGSEELTCEEHARIIFDGLYEFVGLLDAHGNVLEVNQVALEGGGITLEEIRGKPFWKARWWQISKKTEATQKRLVETASSGEFVRCDVEILGKSGGREVIAVDFSLLPICNEEGSIVYLLAAGRNITDKKKAEAMLALKNQELE |  | stoichiometry N [3]: 2
F79Y-PAS1(23–168) (domain or fragment, Pseudomonas putida F1, UniProt A5W4E3 23-168, looked up, TodS sensor kinase of Pseudomonas putida F1, residues 23–168 with F79Y; source: E. coli C41(DE3), purified (Ni-NTA only); not shown: His6, N-terminal, kept) KEKGSEELTCEEHARIIFDGLYEFVGLLDAHGNVLEVNQVALEGGGITLEEIRGKPYWKARWWQISKKTEATQKRLVETASSGEFVRCDVEILGKSGGREVIAVDFSLLPICNEEGSIVYLLAEGRNITDKKKAEAMLALKNQELE | 2 | 
TodS (residues 43–978), C-terminal His6-tagged (enzyme, Pseudomonas putida F1, UniProt A5W4E3 43-978, looked up, In pET28b(+) (NcoI/XhoI); source: E. coli BL21 Star (DE3), purified (Ni-NTA, SEC Superdex G200); not shown: His6, C-terminal, kept) LYEFVGLLDAHGNVLEVNQVALEGGGITLEEIRGKPFWKARWWQISKKTEATQKRLVETASSGEFVRCDVEILGKSGGREVIAVDFSLLPICNEEGSIVYLLAEGRNITDKKKAEAMLALKNQELEQSVECIRKLDNAKSDFFAKVSHELRTPLSLILGPLEAVMAAEAGRESPYWKQFEVIQRNAMTLLKQVNTLLDLAKMDARQMGLSYRRANLSQLTRTISSNFEGIAQQKSITFDTKLPVQMVAEVDCEKYERIILNLLSNAFKFTPDGGLIRCCLSLSRPNYALVTVSDSGPGIPPALRKEIFERFHQLSQEGQQATRGTGLGLSIVKEFVELHRGTISVSDAPGGGALFQVKLPLNAPEGAYVASNTAPRRDNPQVVDTDEYLLLAPNAENEAEVLPFQSDQPRVLIVEDNPDMRGFIKDCLSSDYQVYVAPDGAKALELMSNMPPDLLITDLIMPVMSGDMLVHQVRKKNELSHIPIMVLSAKSDAELRVKLLSESVQDFLLKPFSAHELRARVSNLVSMKVAGDALRKELSDQGDDIAILTHRLIKSRHRLQQSNIALSASEARWKAVYENSAAGIVLTDPENRILNANPAFQRITGYGEKDLEGLSMEQLTPSDESPQIKQRLANLLQGGGAEYSVERSYLCKNGSTIWANASVSLMPQRVGESPVILQIIDDITEKKQAQENLNQLQQQLVYVSRSATMGEFAAYIAHEINQPLSAIMTNANAGTRWLGNEPSNIPEAKEALARIIRDSDRAAEIIRMVRSFLKRQETVLKPIDLKALVTDTSLILKAPSQNNSVNLDVVADDELPEIWGDGVQIQQLIINLAMNAIEAISQADCETRQLTLSFSGNDTGDALVISVKDTGPGISERQMAQLFNAFYTTKKEGLGMGLAICLTITEVHNGKIWVECPPAGGACFLVSIPARQGSGT |  | stoichiometry N [4]: 2
TodS PAS2 (residues 611–729) (domain or fragment, Pseudomonas putida F1, UniProt A5W4E3 611-729, looked up, TodS sensor kinase of Pseudomonas putida F1, residues 611–729 (PAS2 domain); also called PAS2(611–729); source: E. coli BL21 Star (DE3), purified (Ni-NTA, TEV protease, SEC Superdex G75, second Ni-NTA); not shown: His6, N-terminal, cleaved) SEARWKAVYENSAAGIVLTDPENRILNANPAFQRITGYGEKDLEGLSMEQLTPSDESPQIKQRLANLLQGGGAEYSVERSYLCKNGSTIWANASVSLMPQRVGESPVILQIIDDITEKK |  | stoichiometry N [5]: 2
